Laboratory results from patent publication US20250019450A1 (DIAGONAL THERAPEUTICS, published 2025).
Positions count from the first letter of the chain named.

T1: human IL-12Rβ2, Acro (BLI analyte) (human, UniProt Q99665 24-622, limits assumed)
T1 sequence (looked up): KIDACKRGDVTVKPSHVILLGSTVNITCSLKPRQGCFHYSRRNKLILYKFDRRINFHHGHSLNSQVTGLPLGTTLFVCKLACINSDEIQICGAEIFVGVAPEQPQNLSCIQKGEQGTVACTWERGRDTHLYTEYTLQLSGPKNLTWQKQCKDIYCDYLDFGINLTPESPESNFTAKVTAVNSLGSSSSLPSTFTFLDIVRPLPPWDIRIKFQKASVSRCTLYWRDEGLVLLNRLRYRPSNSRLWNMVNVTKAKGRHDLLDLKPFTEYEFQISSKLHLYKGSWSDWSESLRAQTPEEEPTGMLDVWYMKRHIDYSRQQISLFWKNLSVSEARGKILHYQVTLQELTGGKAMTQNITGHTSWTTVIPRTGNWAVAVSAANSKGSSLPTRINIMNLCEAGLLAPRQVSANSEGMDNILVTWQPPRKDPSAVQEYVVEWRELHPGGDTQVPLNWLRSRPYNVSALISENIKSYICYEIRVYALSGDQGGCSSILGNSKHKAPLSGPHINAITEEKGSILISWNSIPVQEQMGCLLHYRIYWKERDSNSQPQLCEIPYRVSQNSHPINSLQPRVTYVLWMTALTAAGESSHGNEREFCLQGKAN

T2: cyno IL-12RB2 with C-terminal HA tag, transiently expressed on HEK-293T cells (cyno, UniProt A0A2K5VNI7 24-860)
T2 construct: whole, on cells; also called cyno IL-12Rβ2
T2 sequence: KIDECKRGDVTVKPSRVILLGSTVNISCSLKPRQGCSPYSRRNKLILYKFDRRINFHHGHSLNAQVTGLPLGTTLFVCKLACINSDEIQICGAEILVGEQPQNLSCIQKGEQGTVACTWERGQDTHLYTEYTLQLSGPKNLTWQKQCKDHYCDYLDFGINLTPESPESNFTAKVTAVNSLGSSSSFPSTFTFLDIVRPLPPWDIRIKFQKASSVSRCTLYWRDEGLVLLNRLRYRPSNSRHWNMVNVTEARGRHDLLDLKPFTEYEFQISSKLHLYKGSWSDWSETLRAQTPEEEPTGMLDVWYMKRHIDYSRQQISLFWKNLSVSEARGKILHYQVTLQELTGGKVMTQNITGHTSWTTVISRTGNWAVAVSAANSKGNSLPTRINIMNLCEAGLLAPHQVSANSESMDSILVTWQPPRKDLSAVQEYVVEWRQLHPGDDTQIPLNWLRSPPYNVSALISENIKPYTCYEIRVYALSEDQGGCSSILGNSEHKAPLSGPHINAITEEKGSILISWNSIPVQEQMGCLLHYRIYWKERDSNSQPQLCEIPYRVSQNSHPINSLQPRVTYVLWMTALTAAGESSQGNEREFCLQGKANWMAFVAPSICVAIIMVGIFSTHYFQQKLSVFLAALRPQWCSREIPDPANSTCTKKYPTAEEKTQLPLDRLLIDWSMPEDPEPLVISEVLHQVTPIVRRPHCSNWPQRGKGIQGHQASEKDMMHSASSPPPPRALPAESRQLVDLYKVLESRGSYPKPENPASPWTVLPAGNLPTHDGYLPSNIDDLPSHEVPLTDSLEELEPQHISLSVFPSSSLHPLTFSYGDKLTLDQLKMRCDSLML

T3: human IL-12RB2 with C-terminal HA tag, transiently expressed on HEK-293T cells (human, UniProt Q99665 24-862)
T3 construct: whole, on cells; also called human IL-12Rβ2
T3 sequence (looked up): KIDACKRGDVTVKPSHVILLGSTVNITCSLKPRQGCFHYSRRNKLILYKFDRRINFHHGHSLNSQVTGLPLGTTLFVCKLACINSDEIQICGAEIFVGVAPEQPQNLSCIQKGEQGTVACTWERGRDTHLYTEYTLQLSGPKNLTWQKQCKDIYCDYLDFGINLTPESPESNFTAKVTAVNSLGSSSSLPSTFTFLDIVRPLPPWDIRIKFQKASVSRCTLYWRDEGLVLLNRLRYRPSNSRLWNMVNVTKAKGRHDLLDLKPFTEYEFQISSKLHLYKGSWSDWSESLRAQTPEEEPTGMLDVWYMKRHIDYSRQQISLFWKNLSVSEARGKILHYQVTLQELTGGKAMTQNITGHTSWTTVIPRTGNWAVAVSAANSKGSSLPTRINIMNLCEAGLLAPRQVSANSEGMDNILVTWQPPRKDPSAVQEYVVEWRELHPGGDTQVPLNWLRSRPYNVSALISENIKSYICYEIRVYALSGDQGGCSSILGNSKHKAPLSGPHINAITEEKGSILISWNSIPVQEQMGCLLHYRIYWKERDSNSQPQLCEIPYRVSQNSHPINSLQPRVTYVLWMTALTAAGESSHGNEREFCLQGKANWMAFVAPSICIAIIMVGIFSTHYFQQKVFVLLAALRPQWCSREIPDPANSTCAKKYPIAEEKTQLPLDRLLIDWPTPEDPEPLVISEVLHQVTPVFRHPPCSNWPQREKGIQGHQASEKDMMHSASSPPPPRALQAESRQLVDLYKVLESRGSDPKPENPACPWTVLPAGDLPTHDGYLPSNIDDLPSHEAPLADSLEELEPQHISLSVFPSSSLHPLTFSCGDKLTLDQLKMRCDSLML

B1: DGL424 (bispecific antibody, human IgG1, lambda)
heavy 1: not shown
heavy 2: QVTLRESGPALVKPTQTLTLTCTFSGFSLSTSGMCVSWIRQPPGKALEWLALIYWDDDKYYSTSLKTRLTISKDTSKNQVVLTMTNMDPVDTATYYCARMRRGIEAFDIWGQGTMVTVFSASTKGPSVFPLAPSSKSTSGGTAALGCLVKDYFPEPVTVSWNSGALTSGVHTFPAVLQSSGLYSLSSVVTVPSSSLGTQTYICNVNHKPSNTKVDKKVEPKSCDKTHTCPPCPAPEAAGAPSVFLFPPKPKDTLMISRTPEVTCVVVDVSHEDPEVKFNWYVDGVEVHNAKTKPREEQYNSTYRVVSVLTVLHQDWLNGKEYKCKVSNKALPAPIEKTISKAKGQPREPQVCTLPPSRDELTKNQVSLSCAVKGFYPSDIAVEWESNGQPENNYKTTPPVLDSDGSFFLVSKLTVDKSRWQQGNVFSCSVMHEALHNRFTQKSLSLSPG
light: QSVLTQPPSVSGAPGQRVTISCTGSSSNIGAGYDVHWYQQLPGTAPKLLIFGYSNRPSGVPVRFSGSKSGTSASLAITGLLAEDEADFYCQSFDISLTGWVFGGGTKLTVLGQPKAAPSVTLFPPSSEELQANKATLVCLISDFYPGAVTVAWKADSSPVKAGVETTTPSKQSNNKYAASSYLSLTPEQWKSHRSYSCQVTHEGSTVEKTVAPTECS
notes: 54B1 x 85802_10K12A
B2: 85801_04G19 (antibody, V domains shown)
VH: QVQLQESGPGLVKPSETLSLTCTVSGGSISSYYWSWIRQSAGKELEWIGRIYTSGSTIYNPSLKSRVTMSVDPSKNQFSLKLSSVTAADTAVYYCANSRSYPHDAFDIWGQGTMVTVSS
VL: DIQLTQSPSFLSASVGYRVTITCRASQGISSYLAWYQQKPGKAPQLLIYAASTLQSGVPSRFSGRGSGTEFTLTISSLQPEDFATYYCQQLNGYPFTFGPGTKVNIK
notes: also called 85801_04G19A
B3: VHH241B2 (VHH)
VHH: QVQLVESGGGLVQLGDSLRLSCAASGRGFSSWTMAWFRQALGKRREFVAAITATGARTCSAESEGRFTISRDNAKNMVFLQMNSLKAEDTAVYYCAATGIASWDPGMADKYTYWGQGTQVTVSS
B4: VHH277B2 (VHH)
VHH: B3 VHH with G99E, S102G, A108G, T112P
B5: DGL421 (bispecific antibody, human IgG1, lambda)
heavy 1: not shown
heavy 2: QVQLQESGPGLVKPSQTLSLTCTVSGGSITTNYYYWSWIRQPPGKGLEWMGAIAYSGSTYYSPSLKSRTSISRDTSKNQFTLQLSSVTPEDTAVYYCASGINFYSNYPTLNEYDYWGQGTQVTVEPKSSDKTHTCPPCPAPEAAGAPSVFLFPPKPKDTLMISRTPEVTCVVVDVSHEDPEVKFNWYVDGVEVHNAKTKPREEQYNSTYRVVSVLTVLHQDWLNGKEYKCKVSNKALPAPIEKTISKAKGQPREPQVCTLPPSRDELTKNQVSLSCAVKGFYPSDIAVEWESNGQPENNYKTTPPVLDSDGSFFLVSKLTVDKSRWQQGNVFSCSVMHEALHNRFTQKSLSLSPG
light: QTVVTQEPSFSVSPGGTVTLTCGLTSGSVSTSYYPSWYQQTPGQAPRTLIYSTYTRSSGVPDRFSGSILGNKAALTITGAQADDESDYYCVLYMGSGIWVFGGGTKLTVLGQPKAAPSVTLFPPSSEELQANKATLVCLISDFYPGAVTVAWKADSSPVKAGVETTTPSKQSNNKYAASSYLSLTPEQWKSHRSYSCQVTHEGSTVEKTVAPTECS
notes: 85801_10K15A x 190B2
B6: VHH211B2 (VHH)
VHH: QVQLVESGGGLVQAGNSLRLSCAASGRTFSSYVVGWFRQAPGKEREFVGRISWSGARTYYADSVKGRFTISRDNAKNTVYLQMNSLKPEDTAVYYCAADLKWEVLLSEHFEYWGQGTQVTVSS
B7: VHH229B2 (VHH)
VHH: QVQLVESGGGLVQAGGSLRLSCAASGRTFSSYAMGWFRQAPGKEREFVSAISWNGGSRYYVESVEGRFTISRDNAKNTVYLQMNSLKPEDTAVYYCAASRIYTNYVARSYEYDDWGQGTQVTVSS
B8: DGL569 (bispecific antibody, V domains shown)
V domain 1: QVQLVESGGGLVQAGGSLRLSCAASRSISSFNEMAWYRQAPGEQRELVATIVSTVGFTNYADSVKGRFTISRDNAKNTVYLQMNSLKAEDTAVYYCNARRISTDYWGQGTQVTVEP
V domain 2: QVQLVESGGGLVQPGGSLRLSCAASGFTFSNYAMSWVRQAPGKGLEWVSAINSDGTSTSYADSVKGQFTISRDNAKNTLYLQMNSLKPEDTAVYYCTKWEGDTDSDYKFKDYWGQGTQVTVEP
notes: 233B1 x 19B2
B9: DGL572 (bispecific antibody, V domains shown)
V domain 1: B8 V domain 1
V domain 2: QVQLVESGGGLVQPGGSLRLSCAASGFTFEPYDMSWFRQAPGKGPEWVSAIDKGGGAGATYYADSVKGRFTISRDNAKKTLYLQMKSLKPEDTAVYYCAITAGPYSDSTPRVAYRGEGTQVTVEP
notes: 233B1 x 93B2
B10: 85801_10K15 (antibody, V domains shown)
VH: QITLKESGPTLVKPTQTLTLTCTFFGFSLNTGGVGVGWIRQPPGKALEWLTLIYWNDDKRYSPSLKSRLTITKDTSKNQVVLTMTNMDPVDTATYYCAHTLRWYHGFDIWGQGTMVTVSS
VL: QTVVTQEPSFSVSPGGTVTLTCGLTSGSVSTSYYPSWYQQTPGQAPRTLIYSTYTRSSGVPDRFSGSILGNKAALTITGAQADDESDYYCVLYMGSGIWVFGGGTKLTVL
notes: also called 85801_10K15A
B11: VHH216B2 (VHH)
VHH: QVQLVESGGGLVQPGGSLRLSCATSEHTFGTYRMGWFRQAPGKEREFVAGISWTGQTTYYAASVKGRFAISKDNAKNTVYLQMNTLKSDDTAVYYCAVETNNLGRWDRPSEYDYWGQGTQVTVSS

Legend:
[1] = molecular target: human IL-12 receptor (IL-12Rβ1 and IL-12Rβ2) on HEK-Blue IL-12 cells (human, UniProt P42701 24-662; Q99665 24-862); test: cell-based or functional assay
[2] = molecular target: T1, human IL-12Rβ2, Acro (BLI analyte); test: BLI (Octet), antibody on AHC tip
[3] = molecular target: T4, human IL-12RB1 overexpressed on 293T cells (Example 2) (human, UniProt P42701 24-662); test: FACS, hybridoma supernatant, 293T
T4 construct: whole, on cells

[4] = molecular target: T5, cyno IL-12RB1 overexpressed on 293T cells (Example 2) (cyno, UniProt A0A2K5VWV1 24-662); test: FACS, hybridoma supernatant, 293T
T5 construct: whole, on cells

[5] = molecular target: T2, cyno IL-12RB2 with C-terminal HA tag, …; test: FACS, periplasmic extract, HEK-293T
[6] = molecular target: T3, human IL-12RB2 with C-terminal HA tag, …; test: FACS, periplasmic extract, HEK-293T
[7] = molecular target: human IL-12Rβ1, Acro (BLI analyte) (human, UniProt P42701 24-545); test: BLI (Octet), antibody on AHC tip

Row | Binder | EC50 [1] | Max Absorbance [1] | FOB [5] [fold] | other results
1 | B1 | 2.6e-10 M (implied) | 1.49 | – | Kd [2]: 0.726 nM
2 | B2 | – | – | – | Fold over parental 293T [3]: 262 fold; Fold over parental 293T [4]: 116 fold
3 | B3 | – | – | 2.37 | –
4 | B4 | – | – | 1.55 | FOB [6]: 1.21 fold
5 | B5 | 1.1e-09 M (implied) | 0.9 | – | Kd [7]: 6.06 nM
6 | B6 | – | – | 0.99 | FOB [6]: 1.64 fold
7 | B7 | – | – | 1 | FOB [6]: 1.42 fold
8 | B8 | 5.2e-09 M (implied) | 1.19 | – | Kd [7]: 1.7 nM; Kd [2]: 0.723 nM
9 | B9 | 1.2e-08 M (implied) | 1.05 | – | Kd [7]: 1.48 nM; Kd [2]: 2.41 nM
10 | B10 | – | – | – | Fold over parental 293T [3]: 57 fold; Fold over parental 293T [4]: 21 fold
11 | B11 | – | – | 0.98 | –
